Assay results published in PMC6386982, “A Thermostable Monoacylglycerol Lipase from Marine Geobacillus sp. 12AMOR1: Biochemical Characterization and Mutagenesis Study” (International Journal of Molecular Sciences, 2019).

Tests used:
Test in all cases: purified protein
Assay type in all cases: biochemical, Geobacillus sp. 12AMOR1
Conditions in all cases: 20 mM Tris-HCl pH 8.0, 30 °C
[1] = test system: T1, CCCC(=O)Oc1ccc([N+](=O)[O-])cc1
T1 construct: catalytic triad Ser97, Asp196, His226

[2] = test system: T2, CCCCCCCC(=O)Oc1ccc([N+](=O)[O-])cc1
T2 construct: catalytic triad Ser97, Asp196, His226

[3] = test system: T3, CCCCCC(=O)Oc1ccc([N+](=O)[O-])cc1
T3 construct: catalytic triad Ser97, Asp196, His226

Substance	Km [1]	kcat [1]	kcat/Km [1]	Km [2]	kcat [2]	kcat/Km [2]	Km [3]	kcat [3]	kcat/Km [3]
GMGL (Geobacillus sp. monoacylglycerol lipase) (Geobacillus sp. 12AMOR1; I145A)	9.56 mM	3.25 s⁻¹	340 M⁻¹ s⁻¹	8.32 mM	0.95 s⁻¹	110 M⁻¹ s⁻¹	1.34 mM	2.02 s⁻¹	1510 M⁻¹ s⁻¹
GMGL (Geobacillus sp. monoacylglycerol lipase) (Geobacillus sp. 12AMOR1)	6.80 mM	9.74 s⁻¹	1430 M⁻¹ s⁻¹	2.83 mM	2.58 s⁻¹	910 M⁻¹ s⁻¹	4.06 mM	4.31 s⁻¹	1060 M⁻¹ s⁻¹
GMGL (Geobacillus sp. monoacylglycerol lipase) (Geobacillus sp. 12AMOR1; I170F)	2.37 mM	3.31 s⁻¹	1210 M⁻¹ s⁻¹	4.63 mM	2.08 s⁻¹	450 M⁻¹ s⁻¹	1.60 mM	3.67 s⁻¹	2290 M⁻¹ s⁻¹
GMGL (Geobacillus sp. monoacylglycerol lipase) (Geobacillus sp. 12AMOR1; L142A)	14.78 mM	15.9 s⁻¹	1080 M⁻¹ s⁻¹	4.65 mM	1.29 s⁻¹	280 M⁻¹ s⁻¹	1.66 mM	4.08 s⁻¹	2460 M⁻¹ s⁻¹
